Test results reported in US6461841B2, “L-amino acid oxidase from Rhodococcus species” (Degussa AG, priority 2000, dated 2002).
“And” between values parts separate entries of the source, which are not always exact repeats. Equal values may be shown once.

Assays:
Assay in all cases: purified protein, by the assay type
Conditions in all cases: other: 0.2 M TEA-HCl buffer, pH 7.6, 30° C.
[1] = substrate: N[C@@H](CO)C(=O)O; type: biochemical
Experimental: (§1) To determine the kinetic constants, the reaction speed of oxidation was studied at different concentrations of amino acid and for different L-amino acids, under the following conditions (tests in microtiter plates):
(§2) 0.2 M TEA-HCl buffer, pH 7.6; 0.2 mg/mL o-dianisidine; 25 U/mL POX; L-amino acid oxidase in limiting amounts; varying concentrations of the different L-amino acids. Activity measurement was conducted by photometry at 450 nm and 30° C.
(§3) The kinetic constants Vmax.

[2] = substrate: C[C@H](N)C(=O)O; type: biochemical
Experimental: as §1, §2, §3

[3] = substrate: NC(=O)NCCC[C@H](N)C(=O)O; type: biochemical
Experimental: as §1, §2, §3

[4] = substrate: N=C(N)NCCC[C@H](N)C(=O)O; type: biochemical
Experimental: as §1, §2, §3

[5] = substrate: N[C@@H](Cc1ccccc1)C(=O)O; type: biochemical
Experimental: as §1, §2, §3

[6] = substrate: NCCCC[C@H](N)C(=O)O; type: biochemical
Experimental: as §1, §2, §3

[7] = substrate: CSCC[C@H](N)C(=O)O; type: biochemical
Experimental: as §1, §2, §3

[8] = substrate: NC(=O)C[C@H](N)C(=O)O; type: biochemical
Experimental: as §1, §2, §3

[9] = substrate: CC(C)[C@H](N)C(=O)O
[10] = substrate: CC[C@H](C)[C@H](N)C(=O)O
[11] = substrate: CC(C)C[C@H](N)C(=O)O
[12] = substrate: NCCC[C@H](N)C(=O)O
[13] = substrate: NC(=O)CC[C@H](N)C(=O)O

B1: L-amino acid oxidase from Rhodococcus opacus (Rhodococcus opacus) (protein)
chain: AGDLIGKVKGSHSVVVLGGGPAGLCSAFELQKAGYKVTVLEARTRPGGRVWTARGGSEETDLSGETQKCTFSEGHFYNVGATRIPQSHITLDYCRELGVEIQGFGNQNANTFVNYQSDTSLSGQSVTYRAAKADTFGYMSELLKKATDQGALDQVLSREDKDALSEFLSDFGDLSDDGRYLGSSRRGYDSEPGAGLNFGTEKKPFAMQEVIRSGIGRNFSFDFGYDQAMMMFTPVGGMDRIYYAFQDRIGTDNIVFGAEVTSMKNVSEGVTVEYTAGGSKKSITADYAICTIPPHLVGRLQNNLPGDVLTALKAAKPSSSGKLGIEYSRRWWETEDRIYGGASNTDKDISQIMFPYDHYNSDRGVVVAYYSSGKRQEAFESLTHRQRLAKAIAEGSEIHGEKYTRDISSSFSGSWRRTKYSESAWANWAGSGGSHGGAATPEYEKLLEPVDKIYFAGDHLSNAIAWQHGALTSARDVVTHIHERVAQEA
notes: made in house; host or cells: Rhodococcus opacus DSM 43250, the natural producer; purified from crude cell extract, not recombinant
- Km [1]: 1360 µM
- Vmax [1]: 4.36 µmol/min/mg
- Km [2]: 274 µM
- Vmax [2]: 4.27 µmol/min/mg
- Km [3]: 26 µM
- Vmax [3]: 5.47 µmol/min/mg
- Km [4]: 70 µM
- Vmax [4]: 8.12 µmol/min/mg
- Km [5]: 19 µM
- Vmax [5]: 5.64 µmol/min/mg
- Km [6]: 15 µM
- Vmax [6]: 3.56 µmol/min/mg
- Km [7]: 39 µM
- Km [8]: 28 µM
- Vmax [8]: 5.37 µmol/min/mg
- Km [9]: 3730 µM
- Vmax [9]: 1.93 µmol/min/mg
- Km [10]: 5110 µM
- Vmax [10]: 2.84 µmol/min/mg
- Km [11]: 28 µM
- Vmax [11]: 6.45 µmol/min/mg
- Km [12]: 34 µM
- Vmax [12]: 7.48 µmol/min/mg
- Vmax [13]: 5.06 µmol/min/mg and 2.32 µmol/min/mg
